# PMC10536585, “Negr1-Derived Peptides Trigger ALK Degradation and Halt Neuroblastoma Progression In Vitro and In Vivo” (Pharmaceutics, 2023)
# “Also recorded” adds a separate entry of the source.
# Key:
# N2a cells [1] = test: MTT assay of N2a cell growth / vitality; format: cell-based, murine; conditions: 5 days; for N2a cellular vitality by MTT assay at DIV5: N2a cells 2 × 10^3 cells/cm^2, 3 μM daily, normalized to vehicle (Lorlatinib) or GFP (rNegr1, PepA-1), n = 10; for N2a cellular growth by MTT assay at DIV5: naive N2a cells seeded at 2 × 10^3 cells/cm^2, 100 ng/mL daily, vs. GFP control, n = 10-12
# Protocol: N2a (Neuro2a, ATCC CCL-131), HEK293 (ATCC CRL-1573), U87 MG (ATCC® HTB14), SKMEL5 (ATCC® HTB70), MCF7 ATCC® HTB-22, A549 ATCC® CCL-185, and SHSY5Y (ATCC® CRL 2266™) cells were grown in DMEM high glucose (Gibco, Thermo Fisher Scientific, Waltham, MA, USA) with 10% FBS, 1% penicillin/streptomycin, and 1% glutamine in a humidified atmosphere of 5% CO2 at 37 °C. In the soft-agar assays, we added 0.6% soft agar (Gibco, Thermo Fisher Scientific, Waltham, MA, USA) in media to 2 × 10^3 cell/cm^2 N2a cells to obtain a final concentration of 0.4% agar. We cultured the cells onto a 0.6% soft agar layer. N2a and HEK293 cells were transfected with the different constructs for 48 h using Lipofectamine 2000 (Invitrogen, Thermo Fisher Scientific Waltham, MA, USA). Stable N2a clones expressing murine Negr1 were isolated upon Neomycin selection (1 μg/mL).
# We performed the 3-(4,5-dimethylthiazol-2-yl)-2,5-diphenyltetrazolium bromide (MTT) assay to appreciate culture vitality. We cultured N2a cells in a 96-well plate at a concentration of 2 × 10^3 cells/cm^2. The treatment condition is indicated in the Results Section 3. At the end of the treatment, we added the MTT solution to the cell medium at a final concentration of 0.25 mg/mL. The incubation lasted 30 min at 37 °C. Next, we removed the medium and collected the formazan precipitates in DMSO (200 μL). We measured the absorbance at 570 nm using a spectrophotometer (Varioskan LUX, Thermofisher, Waltham, MA, USA) as a proxy for cell viability. We expressed relative cell viability fold over the control condition.
# N-MYC = test: Western blotting of N-MYC protein level in treated N2a cells; format: cell-based, murine; conditions: n = 6; for N-MYC protein level (Western blotting), chronic treatment: 100 ng/mL daily for five days
# Protocol: (§1) We assessed protein level and relative phosphorylation by Western blotting as in [31]. Briefly, upon a wash in PBS, we solubilized cells and tumor specimens in lysis buffer (150 mM NaCl, 50 mM HEPES, 0.5% NP40, 1% sodium-deoxycholate). After 1 h under mild agitation, we clarified the lysate by centrifugation for 20 min at 16,000× g. We performed all experimental procedures at 4 °C. We evaluated protein concentrations via Bradford assay (Bio-Rad, Hercules, CA, USA). For Western blotting experiments, we diluted an equal amount of proteins with 0.25% 5× Laemmli buffer. We separated the samples on 10% SDS-PAGE gels and transferred them onto a nitrocellulose membrane (Sigma-Aldrich) at 80 V for 120 min at 4 °C. Primary antibodies were:
# Beta-actin (Santa Cruz Biotechnology, Dallas, TX, USA, sc-47778), ALK (Santa Cruz Biotechnology, Dallas, TX, USA, sc-398791), N-myc (Santa Cruz Biotechnology, Dallas, TX, USA, sc-56729), p44/42 MAPK (Erk1/2) (137F5) Rabbit mAb (Cell Signaling Technology, Danvers, MA, USA), Akt (pan) (11E7) Rabbit mAb (Cell Signaling Technology, Danvers, MA, USA), Phospho-Akt (Ser473) (D9E) XP® Rabbit mAb (Cell Signaling Technology, Danvers, MA, USA), S6 Ribosomal Protein (5G10) Rabbit mAb (Cell Signaling Technology, Danvers, MA, USA), and Negr1 (AF5394) Goat polyclonal (R&D system, Minneapolis, MN, USA). Antibodies were applied overnight in blocking buffer (20 mM Tris, pH 7.4, 150 mM NaCl, 0.1% Tween 20, and 5% nonfat dry milk). We detected proteins using the ECL prime detection system (GE Healthcare, Chicago, IL, USA) with the imaging ChemiDoc Touch system (Bio Rad, Hercules, CA, USA). We quantified the optical density of the specific bands with ImageLab 3.0 software (Bio Rad, Hercules, CA, USA).
# N2a cells [2] = test: Growth of subcutaneous N2a tumors in nude mice; format: in vivo; conditions: 1 million N2a cells s.c. in CD1 nude mice; 2 ug in situ every second day from 100 mm^3 tumor volume; vs. GFP; n = 9 (PepA), n = 5 (PepA-1)
# Source text: All procedures involving animals were approved by Institutional and National Agencies (authorization 559/2016-PR).
# ALK = biological target: T1, ALK (Mus musculus, UniProt P97793); test: Western blotting of ALK protein level in treated N2a cells; format: cell-based, murine; conditions: n = 6; for ALK protein level (Western blotting), chronic treatment: 2 × 10^3 cells/cm^2 N2a cells, 100 ng/mL daily for five days, fold over GFP
# T1 construct: we evaluated ALK and N-MYC protein expression by Western blotting; endogenous in cells; host or cells: N2a (Neuro2a, ATCC CCL-131)
# Protocol: as §1
# Antibodies were applied overnight in blocking buffer (20 mM Tris, pH 7.4, 150 mM NaCl, 0.1% Tween 20, and 5% nonfat dry milk). We detected proteins using the ECL prime detection system (GE Healthcare, Chicago, IL, USA) with the imaging ChemiDoc Touch system (Bio Rad, Hercules, CA, USA). We quantified the optical density of the specific bands with ImageLab 3.0 software (Bio Rad, Hercules, CA, USA).
# N-MYC mRNA = test: RT-qPCR of N-MYC mRNA level in treated N2a cells; format: cell-based, murine; conditions: 5 × 10^3 cells/cm^2 N2a cells, 100 ng/mL, 10 min to 6 h; normalized over housekeeping genes; n = 6
# Source text: (§2) Total RNA was isolated from cell cultures using a Single Cell RNA Purification Kit (Norgen Thorold, ON, Canada) according to manufacturer’s instruction. After extraction, the RNA concentration was quantified with a NanoDrop 2000C spectrophotometer (Thermo Fisher Scientific, Waltham, MA, USA). After DNAse treatment (Thermo Fisher Scientific, Waltham, MA, USA, according to manufacturer’s protocol), complementary DNA (cDNA) was generated using qRT SuperMix (Bimake). The cDNAs were used for quantitative PCR (qPCR) using iTaq Universal SYBR® Green Supermix and CFX96 RealTime System (BioRad, Hercules, CA, USA) for 40 cycles. We used two independent couples of primers to assess mRNA expression levels (Table 3). All samples were measured as technical duplicates. We calculated mRNA expression levels as the average between the two couple of primers, normalized for the mathematical mean of the relative abundance of actinB and GAPDH (housekeeping genes). Data shown were produced using Bio-Rad CFX Manager 3.1 software and analyzed according to the ddCt method.
# ALK mRNA = test: RT-qPCR of ALK mRNA level in treated N2a cells; format: cell-based, murine; conditions: 5 × 10^3 cells/cm^2 N2a cells, 100 ng/mL, 10 min to 6 h; normalized over housekeeping genes; n = 6
# Source text: as §2
# [3] = 2 × 10^3 cells/cm^2 N2a cells, fold over GFP
# [4] = 5 × 10^3 cells/cm^2 N2a cells, 100 ng/mL, 10 min to 6 h, normalized over actin, vs. GFP
# T1 sequence (P97793 19-1621): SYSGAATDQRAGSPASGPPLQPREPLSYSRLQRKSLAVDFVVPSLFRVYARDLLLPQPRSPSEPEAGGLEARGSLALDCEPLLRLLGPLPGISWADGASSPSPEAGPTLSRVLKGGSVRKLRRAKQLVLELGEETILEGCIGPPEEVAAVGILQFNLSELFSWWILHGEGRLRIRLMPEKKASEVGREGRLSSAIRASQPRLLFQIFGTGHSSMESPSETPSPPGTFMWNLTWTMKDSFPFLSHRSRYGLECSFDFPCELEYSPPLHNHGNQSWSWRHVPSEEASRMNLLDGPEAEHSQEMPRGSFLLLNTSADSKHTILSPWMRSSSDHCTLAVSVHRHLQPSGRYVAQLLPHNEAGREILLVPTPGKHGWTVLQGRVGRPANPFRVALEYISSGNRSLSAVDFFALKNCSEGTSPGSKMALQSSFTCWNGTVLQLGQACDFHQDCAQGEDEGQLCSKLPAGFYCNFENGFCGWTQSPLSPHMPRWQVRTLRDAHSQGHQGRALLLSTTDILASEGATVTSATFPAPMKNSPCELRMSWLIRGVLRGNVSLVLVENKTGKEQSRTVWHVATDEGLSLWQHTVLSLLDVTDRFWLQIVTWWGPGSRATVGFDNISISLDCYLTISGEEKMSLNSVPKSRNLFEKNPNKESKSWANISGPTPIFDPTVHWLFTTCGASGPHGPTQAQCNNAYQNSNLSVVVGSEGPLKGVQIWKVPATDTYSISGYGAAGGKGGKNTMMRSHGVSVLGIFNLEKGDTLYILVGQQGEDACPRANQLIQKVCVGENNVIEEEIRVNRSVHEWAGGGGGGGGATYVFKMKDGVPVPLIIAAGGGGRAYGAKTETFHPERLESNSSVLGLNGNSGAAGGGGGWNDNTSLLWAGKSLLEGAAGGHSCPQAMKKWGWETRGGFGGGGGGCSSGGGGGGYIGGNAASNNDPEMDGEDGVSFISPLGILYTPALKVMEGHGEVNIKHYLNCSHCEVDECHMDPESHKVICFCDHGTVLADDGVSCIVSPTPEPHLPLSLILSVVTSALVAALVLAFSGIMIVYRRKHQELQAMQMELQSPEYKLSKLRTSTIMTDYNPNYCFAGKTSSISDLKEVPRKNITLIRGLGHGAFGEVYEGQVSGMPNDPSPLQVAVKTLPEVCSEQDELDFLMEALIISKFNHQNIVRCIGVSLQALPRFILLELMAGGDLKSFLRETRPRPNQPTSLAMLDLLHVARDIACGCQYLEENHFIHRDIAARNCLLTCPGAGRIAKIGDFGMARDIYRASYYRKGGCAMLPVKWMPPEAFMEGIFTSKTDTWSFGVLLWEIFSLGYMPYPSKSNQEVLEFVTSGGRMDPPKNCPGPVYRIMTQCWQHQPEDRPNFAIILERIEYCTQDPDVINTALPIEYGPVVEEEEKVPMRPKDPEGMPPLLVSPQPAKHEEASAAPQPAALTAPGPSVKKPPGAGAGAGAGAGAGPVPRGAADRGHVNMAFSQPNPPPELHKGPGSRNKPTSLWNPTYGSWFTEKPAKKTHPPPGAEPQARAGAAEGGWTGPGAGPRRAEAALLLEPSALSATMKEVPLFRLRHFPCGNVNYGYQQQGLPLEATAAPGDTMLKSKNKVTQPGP
Molecule,N2a cellular vitality by MTT assay at DIV5 (N2a cells [1]),"N-MYC protein level (Western blotting), chronic treatment at 3 μM (N-MYC; 2 × 10^3 cells/cm^2 N2a cells, 3 μM daily for five days, fold over GFP)",N2a cellular growth by MTT assay at DIV5 (N2a cells [1]),"Tumor growth (tumor volume, fold over day 1) (N2a cells [2])","N-MYC protein level (Western blotting), chronic treatment (N-MYC; [3])","ALK protein level (Western blotting), chronic treatment (ALK)",N-MYC mRNA level (RT-qPCR) (N-MYC mRNA),ALK mRNA level (RT-qPCR) (ALK mRNA),"N-MYC protein level (Western blotting), acute treatment (N-MYC; [4])","ALK protein level (Western blotting), acute treatment (ALK; [4])"
"C[C@H]1Oc2cc(cnc2N)-c2c(nn(C)c2C#N)CN(C)C(=O)c2ccc(F)cc21 [Lorlatinib, reference compound]",impaired N2A growth to a similar extent,strongly reduced,,,,,,,,
"VDFPWAAVDNMLVRKGDTAVLRCYLEDGASKGAWLNRSSIIFAGGDKWSVDPRVSISTLNKRDYSLQIQNVDVTDDGPYTCSVQTQHTPRTMQVHL [PepA, Negr1 first Ig domain, strep-FLAG tagged recombinant protein purified from HEK293 cells]",,,significantly reduced N2a proliferation,robust growth reduction,robust reduction,robust reduction,,,,
"rNegr1: Recombinant Strep-FLAG Negr1 (murine) expressed in and purified from HEK293 cells (protein, UniProt Q80Z24 32-318, looked up, Strep-FLAG tag, Recombinant Strep-FLAG Negr1 (murine) expressed in and purified from HEK293 cells) Neuronal growth regulator 1: VDFPWAAVDNMLVRKGDTAVLRCYLEDGASKGAWLNRSSIIFAGGDKWSVDPRVSISTLNKRDYSLQIQNVDVTDDGPYTCSVQTQHTPRTMQVHLTVQVPPKIYDISNDMTINEGTNVTLTCLATGKPEPVISWRHISPSAKPFENGQYLDIYGITRDQAGEYECSAENDVSFPDVKKVRVIVNFAPTIQEIKSGTVTPGRSGLIRCEGAGVPPPAFEWYKGEKRLFNGQQGIIIQNFSTRSILTVTNVTQEHFGNYTCVAANKLGTTNASLPLNPPSTAQYGITG",impaired N2A growth to a similar extent,,significantly reduced N2a growth; also recorded: significantly reduced N2a proliferation,,did not overtly affect,did not overtly affect,light but significant effect,did not notice an overt impact,reduction,reduction
